This is an account of results in a protein production outcome set (Wang et al. 2014).

A short description of this data set: label from the status in PepcDB records.

As for “MSSTLRFHVLGRGAALPRAVAPYFVLRTDNWDDFGHRVQFHLILIVSGAPEKRIGSLKVLQRTSDKGEAMMVATDTELPSKFVELDDTFVSLGQDDDFYKKLHEALGDRAGEVLDALRDIAWRPAFASDFEPTPAFRNAMMRENGAQRARRFGRAWALGEQITERPAFDYVGTIEGADIKVEGEFDFSATDPVPGRIVGLIGRNAVGKTRYLASLGSDLAQISRRSAEALEAREARFPGGRPLFTRIIAISYSAFDRFKRPPMDSSSSYVYCGIRNDRGGLSRSALIDRYRLNQVRIRERGEQRSWMRHMKTILGDQGAQLTASLEEEIRSDSTDDSALSSLSSGQSILAHFVTALLAWIQPNSLVLFDEPETHLHPNAVASLFLVLSQVLQEFDSYAVIATHSPVVIQEIPAKRVLVFRREGNVTIAEPLLLESFGESVTELTRHVFETGEVESLYKRTLRELAAEDTVEDVLARFELGLSLSAQAYLLAQYSKKAGGRTLEHHHHHH”, the protein production entry is “failed”.
The entry for “MSSTLWIFYDQYVQRATVDGLPTFIGPGEQATLRISSLKNDIQVRDQDGQCLIMTDGEELHTLPSGESCELTIDGKPYSFLYVGEAPSEKKYYMGHANLVTISNEPSANIVLPSDIEMDCTLLCERKEWTLYPKEGTQAPYVNGRKVSIPTQIVDGDEMLFGRVLLKIIEGNILVVESNETYETTLTQVETPTSLMQQQYPIYRRTPRMIYEQPTDKVEFSMPSEEIDDVGRPLWMILLPPVAIIVIMVTISIVFQRTWMLFMSVPIMTVMAVVATTMFFREKKKRKQKEEKRKRVYSRYLEVKRDELQALADAQRHALMYHFPTFEQMKNKARRVSSRIWERTIDNNDFLDIRIGRSSVPASFELNQPSDELSNRDRDELMDDFDRFREKYSHLENAPLRLSVARGALGYVGKPSIVEREVSQIIGQLAFAHSYHDLRFVAILNEEQRKKWEWMNWLPHFQLPGTEAKGFIYDEKACDHILNPLYHMLRERDLAQKETVEKKREKKRFLPHIVFFVANRSLIAEHGIMEYLEGKDKELGFTVIFLTDVAQNLNEHVHTIVKAVNRNEGEIVLLRNISIHKRFQFDAYDPASNENYARMLPSLHHQQGMTRSIPDMVSFMEMFPGVIQAKDLEIKKRWQTNDSTKSLAVPIGLKAKDELLELDAHEKMHGPHGLLAGTTGSGKSEFLQTYILSLAVNYHPHEVAFLLIDYKGGGMAQPFKGMPHLLGVITNIAESENFSARALASIRSELKKRQRLFDEHTVNHINDYTELYKAGTAKEPMPHLFIISDEFAELKNEEPEFIKELVSAARIGRSLGVHLLLATQKPSGVVDGQIWSNSRFRIALKVQNATDSREILKNEDAAYIKETGRGYLQIGSNEQYDLFQSAWSGAQYLRSAHDGEEEIAYVTDLGLKLVSRAEIKEDREQESITEIEAVVNEIAATTDELAIVPAKSPWLDPLEERIFYEATSSEDEAQAFPFALADDPENQRQFPICYDWGKSGNLMIFGTSGYGKSTTLLTLLLAFAEKRSPEQANYYVLDFGNGALLPLRQLRHTGDYIKMDEGRKLEKLIDYIEKEMERRSELFMEREVSNISVYNEVSDEPLPSIFIVIDNYDILPEEFSDQAPAFTRFARDGQSRGIYVFATVTARNAVKPVLLNSMNMKICHYMIEKTDLTSLLGRVPFAIESVPGRMIVAKDKNWLAHTYLPAKGENDFEVIENVKARIQTINDRYEDSKLPKSMAMLPKTLTLTGLRERIKEEPRLGIPLGLNEETVQPVYIDQDAGAHMVIAGEPKRGKSNVLKVILSFYFETDVEKIVLCDGVDRPLFDFSRKDKALYPTNAEELQHAVEELKQVMEERRMQYDEALQAGTEIPQFRPYLFVIDSFNEFKKMLGVSKEPAFAEMMQLYGHLEFRVIVAADHKDVSLGRGGVMGELKSARQLVLLVKKSAQSLVSFTHDRTEKLEDGFGYHVVNGRDTKIKIPEVVKEEAFIHS” is “failed”; for “MSSTTNPSTHHTSTIGAIGAPSRRNTELALLVFAVLIPVFAYANVGLAINDEVPAGLLSYGFGLGLLAGVGHLVVRKFAPYADPLLLPLATLLNGLGLVAIWRLDQSDRLQSSKLFVEAAPRQLMYSALGVALFVAVLVFLRDHRVLQRYTYISMAGALVLLLLPLVPGLGHDNFGAKIWIKIPGLGTLQPGEFAKIVLAVFFAGYLMVKRDALALASRRFMGLYLPRGRDLGPIIVVWIISILILVFETDLGTSLLFFGMFVIMLYVATERTSWIVFGLLMSAVGAVGVASFESHVQQRVQAWLDPMHEYELSRQGVFGHTEQSMQALWAFGSGGTLGSGWGQGNSDLIGFAANSDFILATFGEELGLAGLMALLLLYALIVERGVRTALAARDPFGKLLAIGLSGAFALQVFVVAGGVMGLIPLTGMTMPFLAYGGSSVIANWALIGILLRISDTARRPAPAAPANPDAEMTQVVRP” it is “failed”; for “MSSVCFSVSREKLSGDIMLEKLNHYRQNLNFPLARPKNSSTQFRFDWVDNLRELQEVQRFRATQFSHQFGIHFDDGLDQDLYDFNCEHAVLREKWTGEIVAYTRLKLFQGHELSQSYSAQEFDIVDKLSYLPNVVEIGRTCVHPKFRSGKALSTLWLNLVPKVLWSMKAKYLMGCVSIHLDDNAARVYHTHQKIQRLSAEQTIDISSKCAYEPTHPQFSFPQDERIPKLFQMYLTMQSKLSKEAFYDEDFNCLDYFVFLEVNKIAKSFVMNKMVQR” it is “failed”.
On to “MSTARPRIITSKAPLLPQQTTPEQRYWRQYTSAQLVKEHNSVTHISFNPQHPHDFAVTSSTRVQIFSSRTRQVIKTFSRFKDVVYSASFRSDGKLLCAGDATGLVSVYDSYNPRTILLSINASTHPTHVTKFHTQDNKILATASDDRVTRLWDISNAYEPQLELTGATDYVRTLSFIPAAPHLVATGSYDGLIRLYDTRSSGSTPIYSLNHDQPVENVIAVSPTQIVSCGGNNFKVWDLTSNKKLYERGNFNKAVTCLDYVENFDSPMQSALIASSLDGHVKVFDPLDNFQVKFGWKFSGPVLSCAVSPSTAQGNRHLVAGLSSGLLAIRTKKKEKRSSDKENAPASFNKNAKSNNFQRMMRGSEYQGDQEHIIHNDKVRSQRRMRAFERNINQFKWSEALDNAFVPGMAKELTLTVLQELRKRGKVRVALYGRDESTLEPLLNWCLKGIEDVRSASIVADWVAVVLELYGNTLESSPVLQELMIDLKTKVRHEIHKSKEAQRIEGMLQLLTS”, for which the protein production entry was “failed”.
For “MSTASGITMASMSTYAILGCGSVGHAVAEELVEEGKDVLILDADEGRVEALRDQDLNAQQADICETDVAQTVADRDVVLIMSPDVNANAEAVRNIRESGGEQFIVARADDPVSADDLTELGADVVINPSAVIADSALRALETGELEYKASQLGDVIDGTEERMAILIHRSPDPDSIASAAALRAIAASRDVDADIIYEGEIGHQENRAFVNLLGIELTSNEDVNLDEYDTFALVDVAKGGEPAVESVDIVIDHYEHEHELEHDAAFSDIRPNISATSTILTKYIQELDLNLDQSVATALLYGIRAETLDFKRDTTPADLTAAAYLYPFADHDTLEQVESPSMSPETLDVLAEAIRNREVQGSHLVSNAGFIRDRDALAQAAQHLLNLEGITTTAVFAIADDTIYLAARSKDIRMNIGKVLSDAFGGMGETAGHSTDASVEIPLGIFTGLDTSDDNRDTLLELTEEAVKRKLFEAMGVDSSSSESSNGN”, the protein production result is on record as “not failed”.
As for “MSTATLSGQSPSAQRRPMTREERRVIFASSLGTVFEWYDFYLYGSLAAIIAQHFFSGVNPTAAFIFALLAFAAGFAVRPFGALVFGRLGDLVGRKYTFLITIVIMGLSTFLVGVLPSYASIGIAAPAILIILRLLQGLALGGEYGGAATYVAEHAPHGRRGFYTSWIQTTATLGLFLSLLVILGVRTFMGEEAFKDWGWRIPFLISVVLLGISVWIRLQLNESPTFKRMKEEGKGSKAPIAESFGQWRNLKVVILALLGLTAGQAVVWYTGQFYALFFLTQSLKIDSNTANIMIAIALLVGTPFFVLFGALSDRIGRKPIIMAGCLIAALTYFPIFKGLTHYANPALEKAQATAPVTVIADPATCSFQFNPVGTASFTSSCDVVKSFMARNSVNYENQSAAAGSVAKVMIGNDEFASFDGKGLAPAEFKTKATELDKALTAAIRSHGYPAKADPAQTNYFMVVVLLTLLVIYVTMVYGPIAAMLVEMFPTRIRYTSMSLPYHIGNGWFGGFLPPVAFAVVAATGNIYDGLWYPIIIAVMTLVIGTLFVRETKDNDINA”, the protein production entry was “not failed”.
Take “MSTDILSAIGLTIIFVGLVLVIVGIVSGIIKSSKKERNENQREETKTEYGGVIFIGPIPIVFGSNKDMAKMALIIGVIMVVLIIAFVVLSYVV”: the protein production result is given as “failed”.
